In patent US20110318339A1:

What was measured:
[1] = biological target: recombinant mouse DLL4 (Cat# 1389-D4-050/CF, R&D Systems) (mouse) (UniProt Q9JI71); assay: ELISA, mDLL4 coated 0.5 ng/ul, Fab 6.25 nM
[2] = biological target: recombinant mouse DLL4 (Cat# 1389-D4-050/CF, R&D Systems) (mouse) (UniProt Q9JI71); assay: ELISA, mDLL4 coated 0.5 ng/ul, Fab 12.50 nM
[3] = biological target: recombinant mouse DLL4 (Cat# 1389-D4-050/CF, R&D Systems) (mouse) (UniProt Q9JI71); assay: ELISA, mDLL4 coated 0.5 ng/ul, Fab 100.00 nM
[4] = biological target: recombinant mouse DLL4 (Cat# 1389-D4-050/CF, R&D Systems) (mouse) (UniProt Q9JI71); assay: ELISA, mDLL4 coated 0.5 ng/ul, Fab 50.00 nM
[5] = biological target: recombinant mouse DLL4 (Cat# 1389-D4-050/CF, R&D Systems) (mouse) (UniProt Q9JI71); assay: ELISA, mDLL4 coated 0.5 ng/ul, Fab 25.00 nM
[6] = biological target: recombinant mouse DLL4 (Cat# 1389-D4-050/CF, R&D Systems) (mouse) (UniProt Q9JI71); assay: ELISA, mDLL4 coated 0.5 ng/ul, Fab […]
[7] = biological target: recombinant mouse DLL4 (Cat# 1389-D4-050/CF, R&D Systems) (mouse) (UniProt Q9JI71); assay: ELISA, mDLL4 coated 0.5 ng/ul, Fab 0.78 nM
[8] = biological target: recombinant human DLL4 (Cat# 1506-D4/CF, R&D Systems) (human) (UniProt Q9NR61); assay: ELISA, DLL4 coated, Fab […]
[9] = biological target: recombinant human DLL4 (Cat# 1506-D4/CF, R&D Systems) (human) (UniProt Q9NR61); assay: ELISA, DLL4 coated, Fab 20 nM
[10] = biological target: recombinant human DLL4 (Cat# 1506-D4/CF, R&D Systems) (human) (UniProt Q9NR61); assay: ELISA, DLL4 coated, Fab 0.74 nM
[11] = biological target: recombinant human DLL4 (Cat# 1506-D4/CF, R&D Systems) (human) (UniProt Q9NR61); assay: ELISA, DLL4 coated, Fab 2.22 nM
[12] = biological target: recombinant human DLL4 (Cat# 1506-D4/CF, R&D Systems) (human) (UniProt Q9NR61); assay: ELISA, DLL4 coated, Fab 100 nM
[13] = biological target: recombinant human DLL4 (Cat# 1506-D4/CF, R&D Systems) (human) (UniProt Q9NR61); assay: ELISA, DLL4 coated, Fab 12.5 nM
[14] = biological target: recombinant human DLL4 (Cat# 1506-D4/CF, R&D Systems) (human) (UniProt Q9NR61); assay: ELISA, DLL4 coated, Fab 25 nM
[15] = biological target: recombinant human DLL4 (Cat# 1506-D4/CF, R&D Systems) (human) (UniProt Q9NR61); assay: ELISA, DLL4 coated, Fab 50 nM

Sequence of recombinant mouse DLL4 (Cat# 1389-D4-050/CF, R&D Systems) (mouse) (Q9JI71 28-525 limits assumed): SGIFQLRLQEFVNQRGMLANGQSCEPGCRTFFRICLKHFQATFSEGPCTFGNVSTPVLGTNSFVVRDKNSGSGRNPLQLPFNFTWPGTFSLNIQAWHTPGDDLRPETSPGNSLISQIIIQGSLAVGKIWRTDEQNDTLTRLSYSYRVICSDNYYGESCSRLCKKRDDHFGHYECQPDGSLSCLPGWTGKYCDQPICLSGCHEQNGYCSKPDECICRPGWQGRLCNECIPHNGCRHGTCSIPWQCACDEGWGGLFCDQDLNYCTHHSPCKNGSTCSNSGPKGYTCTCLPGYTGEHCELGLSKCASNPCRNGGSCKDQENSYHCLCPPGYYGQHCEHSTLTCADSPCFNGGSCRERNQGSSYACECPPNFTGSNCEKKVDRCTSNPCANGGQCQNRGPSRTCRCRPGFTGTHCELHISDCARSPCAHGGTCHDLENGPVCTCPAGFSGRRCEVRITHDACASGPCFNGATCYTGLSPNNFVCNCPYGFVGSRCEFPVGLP

Binder	ELISA absorbance at 450 nm [8] [A450]	ELISA absorbance at 450 nm [9] [A450]	ELISA absorbance at 450 nm [10] [A450]	ELISA absorbance at 450 nm [11] [A450]	ELISA absorbance at 450 nm [12] [A450]	ELISA absorbance at 450 nm [13] [A450]	ELISA absorbance at 450 nm [14] [A450]	ELISA absorbance at 450 nm [15] [A450]	further results
Fab VH5-51_IGHD5-18*01>3_IGHJ4*01 G100K/G104T G24T/S28R/G35V (H:KT TRV) & V3-4_IGLJ1*01 M94R/S96M (L:RM) (Fab, V domains shown) VH: EVQLVQSGAEVKKPGESLKISCKTSGYRFTSYWIVWVRQMPGKGLEWMGIIYPGDSDTRYSPSFQGQVTISADKSISTAYLQWSSLKASDTAMYYCARRKYSYTYDYFDYWGQGTLVTVSS VL: QTVVTQEPSFSVSPGGTVTLTCGLSSGSVSTSYYPSWYQQTPGQAPRTLIYSTNTRSSGVPDRFSGSILGNKAALTITGAQADDESDYYCVLYRGMGISYVFGTGTKVTVL									ELISA absorbance at 450 nm [1]: 0.148 A450; ELISA absorbance at 450 nm [2]: 0.186 A450; ELISA absorbance at 450 nm [3]: 0.457 A450; ELISA absorbance at 450 nm [4]: 0.331 A450; ELISA absorbance at 450 nm [5]: 0.232 A450; ELISA absorbance at 450 nm [6]: 0.131 A450; ELISA absorbance at 450 nm [7]: 0.13 A450
Fab VH5-51_IGHD5-18*01>3_IGHJ4*01 G100K/G104T S28R & V3-4_IGLJ1*01 M94R/S96M (Fab, V domains shown) VH: EVQLVQSGAEVKKPGESLKISCKGSGYRFTSYWIGWVRQMPGKGLEWMGIIYPGDSDTRYSPSFQGQVTISADKSISTAYLQWSSLKASDTAMYYCARRKYSYTYDYFDYWGQGTLVTVSS VL: QTVVTQEPSFSVSPGGTVTLTCGLSSGSVSTSYYPSWYQQTPGQAPRTLIYSTNTRSSGVPDRFSGSILGNKAALTITGAQADDESDYYCVLYRGMGISYVFGTGTKVTVL	0.001	0.011	0	0.003					
Fab VH5-51_IGHD5-18*01>3_IGHJ4*01 G100K/G104T G24L/S28R/G35V & V3-4_IGLJ1*01 M94R/S96M (Fab, V domains shown) VH: EVQLVQSGAEVKKPGESLKISCKLSGYRFTSYWIVWVRQMPGKGLEWMGIIYPGDSDTRYSPSFQGQVTISADKSISTAYLQWSSLKASDTAMYYCARRKYSYTYDYFDYWGQGTLVTVSS VL: QTVVTQEPSFSVSPGGTVTLTCGLSSGSVSTSYYPSWYQQTPGQAPRTLIYSTNTRSSGVPDRFSGSILGNKAALTITGAQADDESDYYCVLYRGMGISYVFGTGTKVTVL	0	0.003	0	0					
Fab VH5-51_IGHD5-18*01>3_IGHJ4*01 G100K/G104T G24A/S28R/G35V & V3-4_IGLJ1*01 M94R/S96M (Fab, V domains shown) VH: EVQLVQSGAEVKKPGESLKISCKASGYRFTSYWIVWVRQMPGKGLEWMGIIYPGDSDTRYSPSFQGQVTISADKSISTAYLQWSSLKASDTAMYYCARRKYSYTYDYFDYWGQGTLVTVSS VL: QTVVTQEPSFSVSPGGTVTLTCGLSSGSVSTSYYPSWYQQTPGQAPRTLIYSTNTRSSGVPDRFSGSILGNKAALTITGAQADDESDYYCVLYRGMGISYVFGTGTKVTVL	0.034	0.006	0	0					
Fab VH5-51_IGHD5-18*01>3_IGHJ4*01 G100K/G104T G24T/S28R/G35V Y105H & V3-4_IGLJ1*01 (Fab, V domains shown) VH: EVQLVQSGAEVKKPGESLKISCKTSGYRFTSYWIVWVRQMPGKGLEWMGIIYPGDSDTRYSPSFQGQVTISADKSISTAYLQWSSLKASDTAMYYCARRKYSYTHDYFDYWGQGTLVTVSS VL: QTVVTQEPSFSVSPGGTVTLTCGLSSGSVSTSYYPSWYQQTPGQAPRTLIYSTNTRSSGVPDRFSGSILGNKAALTITGAQADDESDYYCVLYMGSGISYVFGTGTKVTVL					0.23	0.21	0.19	0.2	
Fab VH5-51_IGHD5-18*01>3_IGHJ4*01 G100K/G104T G24T/S28R/G35V Y105N & V3-4_IGLJ1*01 (Fab, V domains shown) VH: EVQLVQSGAEVKKPGESLKISCKTSGYRFTSYWIVWVRQMPGKGLEWMGIIYPGDSDTRYSPSFQGQVTISADKSISTAYLQWSSLKASDTAMYYCARRKYSYTNDYFDYWGQGTLVTVSS VL: QTVVTQEPSFSVSPGGTVTLTCGLSSGSVSTSYYPSWYQQTPGQAPRTLIYSTNTRSSGVPDRFSGSILGNKAALTITGAQADDESDYYCVLYMGSGISYVFGTGTKVTVL					0.25	0.21	0.19	0.18	
Fab VH5-51_IGHD5-18*01>3_IGHJ4*01 G100K/G104T G24T/S28R/G35V Y107F & V3-4_IGLJ1*01 (Fab, V domains shown) VH: EVQLVQSGAEVKKPGESLKISCKTSGYRFTSYWIVWVRQMPGKGLEWMGIIYPGDSDTRYSPSFQGQVTISADKSISTAYLQWSSLKASDTAMYYCARRKYSYTYDFFDYWGQGTLVTVSS VL: QTVVTQEPSFSVSPGGTVTLTCGLSSGSVSTSYYPSWYQQTPGQAPRTLIYSTNTRSSGVPDRFSGSILGNKAALTITGAQADDESDYYCVLYMGSGISYVFGTGTKVTVL					0.28	0.21	0.2	0.24	
Fab VH5-51_IGHD5-18*01>3_IGHJ4*01 G100K/G104T G24T/S28R/G35V D109Q & V3-4_IGLJ1*01 (Fab, V domains shown) VH: EVQLVQSGAEVKKPGESLKISCKTSGYRFTSYWIVWVRQMPGKGLEWMGIIYPGDSDTRYSPSFQGQVTISADKSISTAYLQWSSLKASDTAMYYCARRKYSYTYDYFQYWGQGTLVTVSS VL: QTVVTQEPSFSVSPGGTVTLTCGLSSGSVSTSYYPSWYQQTPGQAPRTLIYSTNTRSSGVPDRFSGSILGNKAALTITGAQADDESDYYCVLYMGSGISYVFGTGTKVTVL					0.3	0.24	0.22	0.25	
Fab VH5-51_IGHD5-18*01>3_IGHJ4*01 G100K & V3-4_IGLJ1*01 (Fab, V domains shown) VH: EVQLVQSGAEVKKPGESLKISCKGSGYSFTSYWIGWVRQMPGKGLEWMGIIYPGDSDTRYSPSFQGQVTISADKSISTAYLQWSSLKASDTAMYYCARRKYSYGYDYFDYWGQGTLVTVSS VL: QTVVTQEPSFSVSPGGTVTLTCGLSSGSVSTSYYPSWYQQTPGQAPRTLIYSTNTRSSGVPDRFSGSILGNKAALTITGAQADDESDYYCVLYMGSGISYVFGTGTKVTVL					0.2	0.19	0.18	0.19	
Fab VH5-51_IGHD5-18*01>3_IGHJ4*01 G104T & V3-4_IGLJ1*01 (Fab, V domains shown) VH: EVQLVQSGAEVKKPGESLKISCKGSGYSFTSYWIGWVRQMPGKGLEWMGIIYPGDSDTRYSPSFQGQVTISADKSISTAYLQWSSLKASDTAMYYCARRGYSYTYDYFDYWGQGTLVTVSS VL: QTVVTQEPSFSVSPGGTVTLTCGLSSGSVSTSYYPSWYQQTPGQAPRTLIYSTNTRSSGVPDRFSGSILGNKAALTITGAQADDESDYYCVLYMGSGISYVFGTGTKVTVL					0.17	0.19	0.18	0.17	
